From PMC4172982
Values belong to the substance of their own block, whether it stands above or below them.

Tests used:
G-actin = G-actin (UniProt P60709); details: cited from earlier work
F-actin = F-actin (UniProt P60709); details: cited from earlier work
CaM = CaM (UniProt P0DP23); assay: SPR; details: cited from earlier work
[1] = biological target: 26S proteasome from BALB/c mouse (mouse (endogenous in BALB/c brain)) (UniProt O35226)
UniProt O35226, sequence (O35226 whole entry, looked up): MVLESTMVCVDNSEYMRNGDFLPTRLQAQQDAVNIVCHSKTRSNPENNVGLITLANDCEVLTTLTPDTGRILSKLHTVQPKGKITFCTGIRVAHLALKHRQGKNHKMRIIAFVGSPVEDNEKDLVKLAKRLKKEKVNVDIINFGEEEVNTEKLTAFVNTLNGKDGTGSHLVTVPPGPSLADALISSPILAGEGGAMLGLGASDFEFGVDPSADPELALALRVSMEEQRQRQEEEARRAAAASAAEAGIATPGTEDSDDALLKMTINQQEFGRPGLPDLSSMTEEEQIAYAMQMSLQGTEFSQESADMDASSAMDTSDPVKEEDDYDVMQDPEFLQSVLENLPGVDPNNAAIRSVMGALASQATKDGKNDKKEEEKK

Substance: MBP (from UniProt P02686)
- Kd (G-actin): 66.6 nM
- Kd (F-actin): 65.3 nM

Substance: MBP (from UniProt P81558)
- Kd (CaM): 148 nM

Substance: MBP (from UniProt P04370)
- Kd (CaM): 200 nM

- theoretical KD estimated from the inhibition curve of 26S-mediated MBP hydrolysis, assuming that bound 26S proteasome cannot degrade MBP (blocks m1 with m2) [1]: 1 µM
Substance: Histone H1.3 human, recombinant (from UniProt P16402 1-221) (natural protein)
